Our source for the OD450 values is patent US20260232732A1 (FUNDACI INSTITUT DE RECERCA CONTRA LA LEUC MIA JOSEP …, published 2026).

Assay [1] addresses T1, BSA (negative control coating) (bovine, UniProt P02769 25-607).
T1 construct: also called Negative control BSA
Nature of the assay: ELISA; Ab 0.01563 ug/mL; repI. How it is done:
(§1) In brief, plates with each non-conjugated peptide (50 μg/mL) or BSA-conjugated peptide (5 μg/mL) were coated in 0.58M carbonate-bicarbonate buffer pH9.5, 100 μL/well, at 4° C. […] After washing, wells were incubated with the 3, 3′,5,5′-Tetramethylbenzidine (TMB) HRP substrate and reactions were stopped with 2M HCl and OD450 was recorded.

The target in assay [2] is T2, Peptide 3-BSA (SSMEDYVNFN-C conjugated to BSA) (human).
T2 peptide: SSMEDYVNFNC(BSA)
As to the kind of experiment: ELISA; Ab 0.01563 ug/mL; repI. As for the experimental part:
as §1

The target of assay [3] is T3, Peptide 4, non-conjugated (SMEDYVNFNF-C) (human).
T3 construct: With the extra C-terminal Cys
T3 peptide: SMEDYVNFNFC
As to the kind of experiment: ELISA; Ab 0.01563 ug/mL; repI. How it is done: as §1
For orientation: ELISA stands for enzyme-linked immunosorbent assay.

For assay [4], the target named is T4, antigen peptide-BSA (immunisation peptide #1 MADDYGSESTSSMEDYVNFNF-C conjugated to BSA) (human, extra C-terminal Cys conjugated to BSA).
T4 construct: also called Positive control antigen peptide-BSA; MADDY peptide
T4 peptide: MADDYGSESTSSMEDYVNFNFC
As to the kind of experiment: ELISA; Ab 0.01563 ug/mL; repI. How it is done: as §1

For assay [5], the target named is T5, Peptide 3, non-conjugated (SSMEDYVNFN-C) (human).
T5 construct: With the extra C-terminal Cys
T5 peptide: SSMEDYVNFNC
Nature of the assay: ELISA; Ab 0.01563 ug/mL; repI. How it is done: as §1

In assay [6] the target is T6, biotin-peptide MEDYVNFNFT (human).
T6 peptide: Biotin-MEDYVNFNFT
Nature of the assay: ELISA biotin-peptide; scFv 5 ug/mL; repI. As for the experimental part:
(§2) The peptides were synthesized naked or with a N-terminal Biotin modification with a purity of >98%. All four scFvs were verified by ELISA that can be detected with anti-His antibodies. ELISA was performed for scFv-peptide binding validation. Briefly, naked peptides were coated (50 μg/mL) in 0.58M carbonate-bicarbonate buffer pH9.5, 100 μL/well, 4° C. O/N. Then after blocking (3% BSA-PBS, 300 μL/well 37° C. 1.5 h) and washing (PBS+Tween-20 0.05% v/v (0.05% PBST), wells were incubated with each purified scFv antibody at concentration of 1 μg/mL in PBS at 37° C. 1 h. After washing (0.05% PBST), wells were incubated with secondary antibodies (goat anti-His IgG-HRP) in PBS, 37° C., 30 min. After washing, and incubation with TMB substrate, reactions were stopped with 2M HCl and reading was quantified at OD450.
(§3) ELISA with biotin-conjugated peptides (5 μg/mL) was performed very similar to described above with minor modifications.
(§4) A full curve ELISA was performed for each positive scFv/biotin-peptide pair in order to confirm previous results. Tables 15-17 show ELISA results of the dose-dependent full curve for each positive peptide with scFv “CCR9_HUM”, “Comp-2” and “Comp-3”, respectively.

The target in assay [7] is T7, biotin-peptide TSSMEDYVNF (human).
T7 peptide: Biotin-TSSMEDYVNF
As to the kind of experiment: ELISA biotin-peptide; scFv 5 ug/mL; repI. How it is done: as §2, §3, §4

Assay [8] concerns the target T8, biotin-peptide SMEDYVNFNF (human).
T8 peptide: Biotin-SMEDYVNFNF
As to the kind of experiment: ELISA biotin-peptide; scFv 5 ug/mL; repI. How it is done:
as §2, §3, §4

In assay [9] the target is T9, biotin-peptide SSMEDYVNFN (human).
T9 peptide: Biotin-SSMEDYVNFN
As to the kind of experiment: ELISA biotin-peptide; scFv 5 ug/mL; repI. As for the experimental part: as §2, §3, §4

Assay [10] concerns the target T6, biotin-peptide MEDYVNFNFT
As to the kind of experiment: ELISA biotin-peptide; scFv 10 ug/mL; repI. How it is done: as §2, §3, §4

In assay [11] the target is T7, biotin-peptide TSSMEDYVNF
Nature of the assay: ELISA biotin-peptide; scFv 10 ug/mL; repI. How it is done:
as §2, §3, §4

The target of assay [12] is T8, biotin-peptide SMEDYVNFNF
As to the kind of experiment: ELISA biotin-peptide; scFv 10 ug/mL; repI. As for the experimental part: as §2, §3, §4

Assay [13] deals with T9, biotin-peptide SSMEDYVNFN
As to the kind of experiment: ELISA biotin-peptide; scFv 10 ug/mL; repI. How it is done: as §2, §3, §4

The target of assay [14] is T6, biotin-peptide MEDYVNFNFT
Nature of the assay: ELISA biotin-peptide; scFv 5 ug/mL; repII. How it is done: as §2, §3, §4

Assay [15] deals with T7, biotin-peptide TSSMEDYVNF
As to the kind of experiment: ELISA biotin-peptide; scFv 5 ug/mL; repII. How it is done: as §2, §3, §4

For assay [16], the target named is T8, biotin-peptide SMEDYVNFNF
Nature of the assay: ELISA biotin-peptide; scFv 5 ug/mL; repII. As for the experimental part: as §2, §3, §4

Assay [17] has as its target T9, biotin-peptide SSMEDYVNFN
Nature of the assay: ELISA biotin-peptide; scFv 5 ug/mL; repII. As for the experimental part: as §2, §3, §4

Assay [18] concerns the target T6, biotin-peptide MEDYVNFNFT
Nature of the assay: ELISA biotin-peptide; scFv 1.25 ug/mL; repII. How it is done: as §2, §3, §4

Assay [19] addresses T7, biotin-peptide TSSMEDYVNF
Nature of the assay: ELISA biotin-peptide; scFv 1.25 ug/mL; repII. As for the experimental part: as §2, §3, §4

Assay [20] concerns the target T8, biotin-peptide SMEDYVNFNF
As to the kind of experiment: ELISA biotin-peptide; scFv 1.25 ug/mL; repII. As for the experimental part:
as §2, §3, §4

In assay [21] the target is T9, biotin-peptide SSMEDYVNFN
As to the kind of experiment: ELISA biotin-peptide; scFv 1.25 ug/mL; repII. How it is done:
as §2, §3, §4

Where no end group is shown, it is not given here. The star is where a group is joined. Biotin = O=C1N[C@H]2[C@H](CS[C@H]2CCCCC(=O)*)N1

T1 sequence (P02769 25-607 limits assumed): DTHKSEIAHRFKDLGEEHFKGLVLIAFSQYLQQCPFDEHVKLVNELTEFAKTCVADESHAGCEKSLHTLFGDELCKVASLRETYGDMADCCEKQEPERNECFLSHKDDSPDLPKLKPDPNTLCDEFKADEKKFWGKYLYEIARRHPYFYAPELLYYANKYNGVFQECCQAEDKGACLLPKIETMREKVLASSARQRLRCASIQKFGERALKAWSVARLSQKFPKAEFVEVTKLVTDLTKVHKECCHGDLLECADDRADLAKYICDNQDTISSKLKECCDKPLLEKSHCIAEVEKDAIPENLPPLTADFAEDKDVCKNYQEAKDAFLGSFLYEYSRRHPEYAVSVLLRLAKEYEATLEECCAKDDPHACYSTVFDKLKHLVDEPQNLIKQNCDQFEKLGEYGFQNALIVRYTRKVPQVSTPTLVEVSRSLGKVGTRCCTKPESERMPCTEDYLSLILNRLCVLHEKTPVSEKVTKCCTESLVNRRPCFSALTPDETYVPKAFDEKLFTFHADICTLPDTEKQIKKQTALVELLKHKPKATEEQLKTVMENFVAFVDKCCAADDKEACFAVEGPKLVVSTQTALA

B1: anti-CCR9 antibody clone 115 (murine, from hybridoma #115) (antibody, V domains shown)
VH: QVQLKQSGPELVKPGTSVRVSCTASGYSFTDYIIYWVKQSHGRSLEWIGYIDPNNYNTRYSQKFKGKATLTVDKSSTSAFMHLNSLTSDDSAVYYCARDVYWGQGTTLTVSS
VL: DVVMTQTPLSLTVSLGDQASISCRSSQSLVHSNGKTYLQWYLQKPGQSPKLLIYKVSNRFSGVPDRFSGSGSGTDFTLKISRVEAEDLGVYFCAQSTHVWTFGGGTKLEIKR
notes: Mouse IgG1
As for B1, the OD450 in assay [1] stood at 0.01 OD; in [2], 1.33 OD; in [3], 0.38 OD; in [4], 1.1 OD; in assay [5] it was 1.47 OD.

B2: CCR9_HUM2 scFv (humanized anti-CCR9 scFv, SEQ ID NO: 17 with C-terminal 6xHis tag) (scFv)
scFv: QVQLVQSGAEVKKPGASVKVSCTASGYSFTDYIIYWVKQAHGQSLEWMGYIDPNNYNTRYSQKFQGKVTITVDKSSTSAYMELNSLTSDDTAVYYCARDVYWGQGTTVTVSSGGGGSGGGGSGGGGSGGGGSDVVMTQTPLSLSVTPGQPASISCRSSQSLVHSNGKTYLQWYLQKPGQSPKLLIYKVSNRFSGVPDRFSGSGSGTDFTLKISRVEAEDVGVYFCAQSTHVWTFGGGTKVEIKRAHHHHHH
Turning to B2, the OD450 in [6] was determined as 1.71 OD; in assay [7], 1.47 OD; in [8], 1.78 OD; in [9], 1.86 OD; in assay [10], 1.72 OD; in assay [11] it was 1.46 OD. Moreover, the OD450 amounted to 1.79 OD in assay [12]; 1.9 OD in assay [13]; 1.72 OD in [14]; 1.38 OD in [15]; 1.79 OD in [16]; 1.82 OD in assay [17]. Moreover, the OD450 came out at 1.49 OD in assay [18], 1.23 OD in [19], 1.72 OD in assay [20] and 1.77 OD in assay [21].
